This is an account of results in patent US9512212 (ARIZONA BOARD OF REGENTS A BODY CORPORATE OF THE STATE OF …, dated 2016).

For orientation: Kd means the equilibrium constant for the complex coming apart.

In assay [1] the target is T1, β-amyloid (Aβ) (UniProt P05067 672-711, limits assumed).
T1 construct: Aβ is a fragment of it; also called beta amyloid; Ab40
Description: not stated (standard affinity maturation).

Assay [2] deals with T1, β-amyloid (Aβ). Description: not stated (clone from standard affinity maturation of H1).

T1 sequence (P05067 672-711 limits assumed): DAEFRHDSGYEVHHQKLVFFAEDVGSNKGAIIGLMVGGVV

B1: H1v2 anti-Ab40 scFv (scFv)
scFv: MAEVQLVESGGGVVRPGGSLRLSCAASGFTFDDYGMSWVRQAPGKGLEWVSGINWNGGSTGYADSVKGRFTISRDNAKNSLYLQMNSLRAEDTAVYYCARRRYALDYWGQGTLVTVSRGGGGSGGGGSGGGGSSELTQDPAVSVALGQTVRITCQGDSLRSYYASWYQQKPGQAPVLVIYGKNNRPSGIPDRFSGSSSGNTASLTITGAQAEDEADYYCNSRDSSGNHVVFGGGTKLTVLG
notes: also called H1v2 clone
B1: the “fold increase in affinity over the parent H1 scFv” value in the assay with β-amyloid (Aβ) [1] was around 5 fold. The molecule also registered a Kd with β-amyloid (Aβ) [2] of 247 nM.
